Source: patent US20080095772A1 (Chugai, published 2008)

B1: humanized #23-57-137-1 antibody, H chain version a, L chain version m (antibody, V domains shown)
VH: QVQLVESGGGVVQPGRSLRLSCAASGFTFSSYGMSWVRQAPGKGLEWVATISSGGSYTYYPDSVKGRFTISRDNSKNTLYLQMNSLRAEDTAVYYCARQTTMTYFAYWGQGTLVTVSS
VL: QLVLTQSPSASASLGASVKLTCTLSSQHSTYTIEWYQQQPEKGPRYLMDLKQDGSHSTGDGIPDRFSGSSSGAERYLTISSLQSEDEADYYCGVGDTIKEQFVYVFGGGTKLTVLG
notes: Human Cγ1 and human Cλ C regions; Expressed in COS-7 for ELISA and in CHO for BIACORE; also called hMBCm
B2: humanized #23-57-137-1 antibody, H chain version a, L chain version q (antibody, V domains shown)
VH: QVQLVESGGGVVQPGRSLRLSCAASGFTFSSYGMSWVRQAPGKGLEWVATISSGGSYTYYPDSVKGRFTISRDNSKNTLYLQMNSLRAEDTAVYYCARQTTMTYFAYWGQGTLVTVSS
VL: QLVLTQSPSASASLGASVKLTCTLSSQHSTYTIEWYQQQPEKGPKYLMDLKQDGSHSTGDGIPDRFSGSSSGAERYLTISSLQSEDEADYICGVGDTIKEQFVYVFGGGTKLTVLG
notes: Human Cγ1 and human Cλ C regions; Expressed in COS-7 for ELISA and in CHO for BIACORE; also called hMBCq
B3: chimeric #23-57-137-1 antibody with human λ L chain C region (antibody, V domains shown)
VH: EVQLVESGGDLVKPGGSLKLSCAASGFTFSSYGMSWIRQTPDKRLEWVATISSGGSYTYYPDSVKGRFTISRDNAKNTLYLQMSSLKSEDTAMFYCARQTTMTYFAYWGQGTLVTVSA
VL: QLVLTQSSSASFSLGASAKLTCTLSSQHSTYTIEWYQQQPLKPPKYVMDLKQDGSHSTGDGIPDRFSGSSSGADRYLSISNIQPEDEAMYICGVGDTIKEQFVYVFGGGTKVTVLG
notes: It was expressed in COS-7 for ELISA and in CHO for BIACORE; also called chMBC; chH-chλ
B4: mouse FR1,2/human FR3,4 hybrid antibody (L chain m/hMBC1Ldλ, humanized H chain version a) (antibody, V domains shown)
VH: QVQLVESGGGVVQPGRSLRLSCAASGFTFSSYGMSWVRQAPGKGLEWVATISSGGSYTYYPDSVKGRFTISRDNSKNTLYLQMNSLRAEDTAVYYCARQTTMTYFAYWGQGTLVTVSS
VL: QLVLTQSSSASFSLGASAKLTCTLSSQHSTYTIEWYQQQPLKPPKYVMDLKQDGSHSTGDGIPDRFSGSSSGAERYLTISSLQSEDEADYICGVGDTIKEQFVYVFGGGTKLTVLG
notes: Human Cγ1 and human Cλ C regions; Expressed in COS-7
B5: mouse FR1,2/human FR3,4 hybrid antibody (L chain m/hMBC1Laλ, humanized H chain version a) (antibody, V domains shown)
VH: QVQLVESGGGVVQPGRSLRLSCAASGFTFSSYGMSWVRQAPGKGLEWVATISSGGSYTYYPDSVKGRFTISRDNSKNTLYLQMNSLRAEDTAVYYCARQTTMTYFAYWGQGTLVTVSS
VL: QLVLTQSSSASFSLGASAKLTCTLSSQHSTYTIEWYQQQPLKPPKYVMDLKQDGSHSTGDGIPDRFSGSSSGAERYLTISSLQSEDEADYYCGVGDTIKEQFVYVFGGGTKLTVLG
notes: as for B4
B6: human FR1,2/mouse FR3,4 hybrid antibody (L chain h/mMBC1L(λ), humanized H chain version a) (antibody, V domains shown)
VH: QVQLVESGGGVVQPGRSLRLSCAASGFTFSSYGMSWVRQAPGKGLEWVATISSGGSYTYYPDSVKGRFTISRDNSKNTLYLQMNSLRAEDTAVYYCARQTTMTYFAYWGQGTLVTVSS
VL: QLVLTQSPSASASLGASVKLTCTLSSQHSTYTIEWHQQQPEKGPRYLMKLKQDGSHSTGDGIPDRFSGSSSGADRYLSISNIQPEDEAMYICGVGDTIKEQFVYVFGGGTKVTVLG
notes: Human Cγ1 and human Cλ C regions; Expressed in COS-7; also called h/mMBC1Ld(λ)
B7: human FR1/mouse FR2,3,4 hybrid antibody (L chain hmmMBC1L(λ), humanized H chain version a) (antibody, V domains shown)
VH: QVQLVESGGGVVQPGRSLRLSCAASGFTFSSYGMSWVRQAPGKGLEWVATISSGGSYTYYPDSVKGRFTISRDNSKNTLYLQMNSLRAEDTAVYYCARQTTMTYFAYWGQGTLVTVSS
VL: QLVLTQSPSASASLGASVKLTCTLSSQHSTYTIEWYQQQPLKPPKYVMDLKQDGSHSTGDGIPDRFSGSSSGADRYLSISNIQPEDEAMYICGVGDTIKEQFVYVFGGGTKVTVLG
notes: as for B4
B8: mouse FR1/human FR2/mouse FR3,4 hybrid antibody (L chain mhmMBC1L(λ), humanized H chain version a) (antibody, V domains shown)
VH: QVQLVESGGGVVQPGRSLRLSCAASGFTFSSYGMSWVRQAPGKGLEWVATISSGGSYTYYPDSVKGRFTISRDNSKNTLYLQMNSLRAEDTAVYYCARQTTMTYFAYWGQGTLVTVSS
VL: QLVLTQSSSASFSLGASAKLTCTLSSQHSTYTIEWHQQQPEKGPRYLMKLKQDGSHSTGDGIPDRFSGSSSGADRYLSISNIQPEDEAMYICGVGDTIKEQFVYVFGGGTKVTVLG
notes: as for B4
B9: hH / hLa (antibody, V domains shown)
VH: QVQLVESGGGVVQPGRSLRLSCAASGFTFSSYGMSWVRQAPGKGLEWVATISSGGSYTYYPDSVKGRFTISRDNSKNTLYLQMNSLRAEDTAVYYCARQTTMTYFAYWGQGTLVTVSS
VL: QLVLTQSPSASASLGASVKLTCTLSSQHSTYTIEWHQQQPEKGPRYLMKLKQDGSHSTGDGIPDRFSGSSSGAERYLTISSLQSEDEADYYCGVGDTIKEQFVYVFGGGTKLTVL
notes: copies: 2 + 2

What follows are binders tested against PTHrP (1-34+Cys) (human, C-terminal Cys coupled to sensor tip CM5 through PDEA (thiol coupling)) (assay: BIACORE (SPR), PTHrP (1-34+C) immobilised on CM5 through the C-terminal Cys, antibody as analyte).
Procedure: In this experiment, kinetic analysis of the antigen-antibody interaction using BIACORE was conducted. PTHrP(1-34+Cys) was used as an antigen and adsorbed onto the sensor tip specifically for C-terminals. Purified antibodies of various concentrations were used as an analyte. From the sensorgram obtained, kinetics parameters (binding rate constant “kass” and dissociation rate constant “kdiss”) were calculated.
As a running buffer, HBS (10 mM HEPES, pH 7.4; 0.15 M NaCl; 3.4 mM EDTA; 0.005% Surfactant P20) at a flow rate of 5 μl/min. was employed. The carboxyl groups of carboxymethyldextran on the sensor tip CM5 were activated by an injection of 100 μl of 0.05M N-hydroxysuccinimide (NHS)/0.2M N-ethyl-N′-(3-dimethylaminopropyl)carbodiimide hydrochloride (EDC) and an injection of 100 μl of 80 mM 2-(2-pyridinyldithio)ethanamine (PDEA)/0.1M borate buffer (pH 8.5), and an additional injection of 10 μl of 5 μg/ml PTHrP (1-34+C)/10 mM sodium acetate buffer (pH 5.0) to adsorbe onto the C-terminals of PTHrP (1-34+C) specifically for Cys residues. Subsequently, an injection of 100 μl of 50 mM (L)-cystein/1M NaCl/0.1M sodium formate buffer (pH 4.3) was conducted to block excessively activated groups. Subsequently, an injection of 10 μl of 0.1M glycine-HCl buffer (pH 2.5) and 10 μl of 10 mM HCl was conducted to wash the substances having non-covalent bonding.
The date file of interest was read and a comparison of the reaction patterns was conducted by overlaying the reaction regions of interest (FIGS. 20-24). […] Further, kinetic analysis of the interaction was conducted using an analysis software specifically designed for BIACORE “BIAevaluation 2.1” (Pharmacia) which is capable of calculating the kinetics parameters (binding rate constant “kass” and dissociation rate constant “kdiss”) by curve cutting (Tables 4 and 5).

Kd	koff	kon	Binder
358 pM	0.000316 s⁻¹	883000 M⁻¹ s⁻¹	B1
225 pM	0.000232 s⁻¹	1.03e+06 M⁻¹ s⁻¹	B2
134 pM	0.000166 s⁻¹	1.24e+06 M⁻¹ s⁻¹	B3

These binders were tested against T1, human PTHrP (1-34) (human) (assay: ELISA on plate-coated human PTHrP (1-34) (1 µg/ml); bound antibody detected with alkaline phosphatase-conjugated goat anti-human IgG; O.D. 405/620).
T1 construct: Synthetic peptide (Peninsula; Peptide Research Institute), coated on ELISA plates at 1 µg/ml or used in solid phase RIA; also called human parathyroid hormone related protein (1-34)
Procedure: (§1) An ELISA plate for determining antigen binding ability was prepared as follows. Each of the wells of a 96-well plate for ELISA (Maxisorp, NUNC) was coated with 100 μl of a coating buffer supplemented with 1 μg/ml of human PTHrP (1-34) and then blocked with 200 μl of a dilution buffer. Thereafter, into each of the wells, was added a culture supernatant of the COS-7 cells in which the hybrid antibody or humanized antibody was expressed or a solution of the purified hybrid antibody or the purified humanized antibody in stepwise dilution. After incubating at room temperature and washing with PBS-Tween20, 100 μl of alkaline phosphatase-conjugated goat anti-human IgG antibody (TAGO) was added to each of the wells. […] The solution was measured for absorbance at 405 nm using Microplate Reader (Bio Rad).

binding result	Binder
binds	B4
binds	B5
no binding (tested: about 340 ng/ml)	B6

Target: T1, human PTHrP (1-34)
Experiment: as above
Remark: another data set of the same source
Procedure: as §1

binding result	Binder
binds	B7
binds	B3
no binding (tested: about 250 ng/ml)	B8

Target: T1, human PTHrP (1-34)
Experiment: as above
Remark: another data set of the same source
Procedure: as §1

binding result	Binder
no binding (tested: about 390 ng/ml)	B9

Target: T1, human PTHrP (1-34)
Experiment: as above
Remark: another data set of the same source
Procedure: as §1

binding result	Binder
binds	B1

Target: T1, human PTHrP (1-34)
Experiment: as above
Remark: another data set of the same source
Procedure: as §1

binding result	Binder
binds	B2
